Results taken from paper PMC5015425, “Structural insights into Parkin substrate lysine targeting from minimal Miro substrates” (Scientific Reports, 2016).

Biological target: the molecule itself
Assay: SEC-MALS; S200 10/300 GL column, 25 mM HEPES pH 7.4, 200 mM NaCl, 0.5 mM TCEP, 1 mM MgCl2, 0.5 mL/min, 10 °C; injected: hMiro1-C 16 mg/mL, hMiro2-C 7 mg/mL, hMiro1-CM 18 mg/mL

B1: human Miro1 cGTPase domain, aa 411-592 (hMiro1-C) (domain or fragment, UniProt Q8IXI2 411-592, looked up)
chain: KKQTQRNVFRCNVIGVKNCGKSGVLQALLGRNLMRQKKIREDHKSYYAINTVYVYGQEKYLLLHDISESEFLTEAEIICDVVCLVYDVSNPKSFEYCARIFKQHFMDSRIPCLIVAAKSDLHEVKQEYSISPTDFCRKHKMPPPQAFTCNTADAPSKDIFVKLTTMAMYPHVTQADLKSSTF
notes: human Miro1 (RhoT1), C-terminal GTPase (cGTPase) domain, residues 411-592; Dimer in the crystal and in solution; Details of expression are in the Supplementary Methods; also called hMiro1-CD; hMiro1 cGTPase; source: bacteria, purified (TALON beads, HiTrap S cation exchange, Superdex 200 when necessary)
- stoichiometry N: 2
